How the values were obtained:
[1] = molecular target: human claudin 18 isoform 2 (claudin 18.2) (human); experiment: immunofluorescence imaging on CHO-Claudin18.2 cells, serial dilution of antibody; table drawn under the curves (run with Hu-2, Hu-9, Hu-10)
[2] = molecular target: human claudin 18 isoform 2 (claudin 18.2) (human); experiment: cell-based or functional assay
[3] = molecular target: human claudin 18 isoform 2 (claudin 18.2) (human); experiment: immunofluorescence imaging, CHO-CLDN18.2 cells (FIG. 3B)

Sequence of PC1 (in-house positive control CLDN18.2-specific antibody zolbetuximab) (VH): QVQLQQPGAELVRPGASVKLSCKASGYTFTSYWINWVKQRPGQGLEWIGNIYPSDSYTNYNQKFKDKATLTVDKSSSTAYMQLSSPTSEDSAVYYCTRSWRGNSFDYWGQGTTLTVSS
Sequence of PC1 (in-house positive control CLDN18.2-specific antibody zolbetuximab) (VL): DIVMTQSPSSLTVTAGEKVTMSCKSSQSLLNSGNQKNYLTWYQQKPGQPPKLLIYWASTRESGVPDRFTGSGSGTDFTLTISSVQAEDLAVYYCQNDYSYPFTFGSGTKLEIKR

EC50 [1]: 3.2 nM
ADCC EC50, similar assay with human effector cells (data not shown) [2]: 0.66 nM
EC50 [3]: 3.2 nM
Substance: PC1 (in-house positive control CLDN18.2-specific antibody zolbetuximab)
